We go through two substances from patent US20060234308.

The subject of series [1] is T1, Cys-BAl-Ala-Lys-Arg-Arg-Arg-Leu-Ser-Ser-Leu-Arg-Ala-NH2.
T1 sequence: CXAKRRRLSSLRA

Series [2] relates to T2, Leu-Arg-Arg-Ala-Ser-Leu-Gly-thioamide.
T2 sequence: LRRASLG

For series [3], the system named is T3, Cys-BAl-Gly-Arg-Thr-Gly-Arg-Arg-Asn-Ser-Ile-NH2.
T3 sequence: CXGRTGRRNSI

In series [4] the test system is T4, Arg-Arg-Ile-Ser-Lys-Asp-Asn-Pro-Asp-Tyr-Gln-Gln-Asp-BAl-Cys-NH2.
T4 sequence: RRISKDNPDYQQDXC

Series [5] has as its system T5, Cys-BAl-Lys-Arg-Arg-Glu-Ile-Leu-Ser-Arg-Arg-Pro-Ser-Tyr-Arg-NH2.
T5 sequence: CXKRREILSRRPSYR

Series [6] has as its system 13-mer peptides of the scan through the myelin basic protein (MBP) from bos taurus.
The subject of series [7] is T6, Cys-βAla-Leu-Arg-Arg-Ala-Ser-Leu-Gly-NH2.
T6 sequence: CXLRRASLG

The subject of series [8] is T7, Dpr(Aoa)-Leu-Arg-Arg-Ala-Ser-Leu-Gly-NH2.
T7 sequence: LRRASLG

The subject of series [9] is T8, Cys-BAl-Lys-Lys-Arg-Phe-Ser-Phe-Lys-Lys-Ser-Phe-Lys-Leu-NH2.
T8 sequence: CXKKRFSFKKSFKL

The test system of series [10] is T9, Cys-BAl-Pro-Leu-Ser-Arg-Thr-Leu-Ser-Val-Ala-Ala-Lys-Lys-NH2.
T9 sequence: CXPLSRTLSVAAKK

The test system of series [11] is other peptides not described as substrates for protein kinase C.
For series [12], the system named is T10, Cys-BAl-Gln-Lys-Arg-Pro-Ser-Gln-Arg-Ser-Lys-Tyr-Leu-NH2.
T10 sequence: CXQKRPSQRSKYL

In series [13] the test system is T11, Cys-BAl-Pro-Lys-Asp-Pro-Ser-Gln-Arg-Arg-Arg-NH2.
T11 sequence: CXPKDPSQRRR

Turning to Protein kinase A, the “phosphorylation on peptide array (32P, PhosphorImager; higher signal in all three subarrays)” value in [1] is “with one exception, all the peptides on the modified glass surface are recognised and phosphorylated by protein kinase A which carries two arginine residues in position -2 and -3 (N-terminal) to the serine”; in [3] it was “with one exception, all the peptides on the modified glass surface are recognised and phosphorylated by protein kinase A which carries two arginine residues in position -2 and -3 (N-terminal) to the serine”; in [5], “with one exception, all the peptides on the modified glass surface are recognised and phosphorylated by protein kinase A which carries two arginine residues in position -2 and -3 (N-terminal) to the serine”; in series [7], “with one exception, all the peptides on the modified glass surface are recognised and phosphorylated by protein kinase A which carries two arginine residues in position -2 and -3 (N-terminal) to the serine”. Further, the “phosphorylation of 11760 spots on glass (32P, PhosphorImager; FIG. 6)” value in [2] is reported as “the linking of the immobilised kinase substrate is tolerated by the protein kinase A”. Moreover, the “phosphorylation on peptide array (32P, PhosphorImager)” value in series [4] was “The peptide 83 is probably not phosphorylated because of the excessive N-terminal localisation of the substrate motif”. The “phosphorylation on MBP peptide scan array (32P, PhosphorImager; higher signal in all three subarrays)” value in [6] was “most of the peptides on the modified glass surface are recognised and phosphorylated by protein kinase A which was also found in the experiment carried out in solution”. The “time course of 32P incorporation on modified glass (FIG. 3)” value in series [7] was “a clear time dependence can be identified for the kinase-mediated incorporation of radioactivity into the substrate amino acid sequence”. In addition, in series [8], the “phosphorylation of 960 spots on glass (32P, PhosphorImager; FIG. 7)” value is “the linking of the immobilised kinase substrate is tolerated by the protein kinase A”.

Turning to Protein kinase C, the “phosphorylation on peptide array (32P, PhosphorImager; higher signal in all three subarrays)” value was “the peptides known as protein kinase C substrates (substrate peptides Nos. 3, 23, 27, 41, 43) ... are recognised and phosphorylated by this kinase on the modified glass surface” in [9]; “the peptides known as protein kinase C substrates (substrate peptides Nos. 3, 23, 27, 41, 43) ... are recognised and phosphorylated by this kinase on the modified glass surface” in series [1]; “the peptides known as protein kinase C substrates (substrate peptides Nos. 3, 23, 27, 41, 43) ... are recognised and phosphorylated by this kinase on the modified glass surface” in series [10]; “other peptides not described as substrates for protein kinase C are recognised and phosphorylated by this kinase on the modified glass surface” in [11]; “the peptides known as protein kinase C substrates (substrate peptides Nos. 3, 23, 27, 41, 43) ... are recognised and phosphorylated by this kinase on the modified glass surface” in series [12]; “the peptides known as protein kinase C substrates (substrate peptides Nos. 3, 23, 27, 41, 43) ... are recognised and phosphorylated by this kinase on the modified glass surface” in [13].
